Source: US20040132073A1 (Takeda / Millennium, published 2004)
One block for each binder: values may come before it. Ends that are not written are not given here.

Legend:
[1] = target: human G protein-coupled receptor protein hOT7T022 (human, UniProt Q9GZQ6 1-430); test: cell-based or functional assay
[2] = target: rat G protein-coupled receptor protein rOT7T022L (rat, UniProt Q9EP86 1-432); test: cell-based or functional assay
Sequence of rat G protein-coupled receptor protein rOT7T022L (Q9EP86 whole entry): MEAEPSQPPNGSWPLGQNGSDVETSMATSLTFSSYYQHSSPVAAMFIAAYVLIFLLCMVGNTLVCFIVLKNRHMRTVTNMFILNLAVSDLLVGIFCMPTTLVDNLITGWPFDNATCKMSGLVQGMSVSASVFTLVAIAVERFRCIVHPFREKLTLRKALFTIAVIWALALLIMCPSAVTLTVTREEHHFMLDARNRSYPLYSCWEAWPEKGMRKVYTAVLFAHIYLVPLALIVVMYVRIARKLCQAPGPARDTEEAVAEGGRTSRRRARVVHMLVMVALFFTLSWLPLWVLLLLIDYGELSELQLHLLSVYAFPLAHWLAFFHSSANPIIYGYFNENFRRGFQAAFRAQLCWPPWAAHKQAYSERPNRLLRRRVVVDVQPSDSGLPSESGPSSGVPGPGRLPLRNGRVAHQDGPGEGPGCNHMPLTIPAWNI

Sequence of human G protein-coupled receptor protein hOT7T022 (Q9GZQ6 whole entry): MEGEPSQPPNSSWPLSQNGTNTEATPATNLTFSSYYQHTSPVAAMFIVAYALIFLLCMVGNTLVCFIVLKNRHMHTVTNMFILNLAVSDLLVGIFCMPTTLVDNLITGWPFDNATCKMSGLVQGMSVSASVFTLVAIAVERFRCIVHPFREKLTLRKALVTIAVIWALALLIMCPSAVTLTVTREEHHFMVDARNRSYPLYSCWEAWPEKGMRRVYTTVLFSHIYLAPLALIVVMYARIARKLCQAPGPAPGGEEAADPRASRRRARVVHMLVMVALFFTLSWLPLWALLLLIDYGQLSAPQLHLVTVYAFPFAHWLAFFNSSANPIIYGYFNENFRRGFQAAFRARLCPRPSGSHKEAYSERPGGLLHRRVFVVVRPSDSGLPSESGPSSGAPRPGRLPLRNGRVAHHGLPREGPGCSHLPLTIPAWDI

ED50, inhibition of the increased cAMP level in the cells by the forskolin treatment [1]: 4.5 nM | IC50 of cAMP production suppression (forskolin-stimulated cells, cAMP EIA) [2]: 0.5 nM
B2: peptide MPHSFANLPLRFamide (SEQ ID NO: 39) (peptide)
peptide: MPHSFANLPLRF-NH2

ED50, inhibition of the increased cAMP level in the cells by the forskolin treatment [1]: 30 nM
B4: rRFRP-1-37 (peptide having the 58 (Ser) to 94 (Phe) amino acid sequence in SEQ ID NO: 50) (peptide)
peptide: SVTFQELKDWGAKKDIKMSPAPANKVPHSAANLPLRF
modifications: ends and bridges not checked

Second part, the binder before the results:

B1: hRFRP-1-37 (peptide having the 56 (Ser) to 92 (Phe) amino acid sequence in SEQ ID NO: 1) (peptide)
peptide: SLNFEELKDWGPKNVIKMSTPAVNKMPHSFANLPLRF-NH2
ED50, inhibition of the increased cAMP level in the cells by the forskolin treatment [1]: 21 nM

B3: PQRFamide (peptide shown by Pro-Gln-Arg-Phe-NH2) (peptide)
peptide: PQRF-NH2
ED50, inhibition of the increased cAMP level in the cells by the forskolin treatment [1]: ≥ 1000 nM
